Test results reported in patent US20020165381A1, “Human androgen receptor variants” (priority 2000, published 2002).

T1: AR (Homo sapiens, UniProt P10275)
T1 sequence (P10275 1-920): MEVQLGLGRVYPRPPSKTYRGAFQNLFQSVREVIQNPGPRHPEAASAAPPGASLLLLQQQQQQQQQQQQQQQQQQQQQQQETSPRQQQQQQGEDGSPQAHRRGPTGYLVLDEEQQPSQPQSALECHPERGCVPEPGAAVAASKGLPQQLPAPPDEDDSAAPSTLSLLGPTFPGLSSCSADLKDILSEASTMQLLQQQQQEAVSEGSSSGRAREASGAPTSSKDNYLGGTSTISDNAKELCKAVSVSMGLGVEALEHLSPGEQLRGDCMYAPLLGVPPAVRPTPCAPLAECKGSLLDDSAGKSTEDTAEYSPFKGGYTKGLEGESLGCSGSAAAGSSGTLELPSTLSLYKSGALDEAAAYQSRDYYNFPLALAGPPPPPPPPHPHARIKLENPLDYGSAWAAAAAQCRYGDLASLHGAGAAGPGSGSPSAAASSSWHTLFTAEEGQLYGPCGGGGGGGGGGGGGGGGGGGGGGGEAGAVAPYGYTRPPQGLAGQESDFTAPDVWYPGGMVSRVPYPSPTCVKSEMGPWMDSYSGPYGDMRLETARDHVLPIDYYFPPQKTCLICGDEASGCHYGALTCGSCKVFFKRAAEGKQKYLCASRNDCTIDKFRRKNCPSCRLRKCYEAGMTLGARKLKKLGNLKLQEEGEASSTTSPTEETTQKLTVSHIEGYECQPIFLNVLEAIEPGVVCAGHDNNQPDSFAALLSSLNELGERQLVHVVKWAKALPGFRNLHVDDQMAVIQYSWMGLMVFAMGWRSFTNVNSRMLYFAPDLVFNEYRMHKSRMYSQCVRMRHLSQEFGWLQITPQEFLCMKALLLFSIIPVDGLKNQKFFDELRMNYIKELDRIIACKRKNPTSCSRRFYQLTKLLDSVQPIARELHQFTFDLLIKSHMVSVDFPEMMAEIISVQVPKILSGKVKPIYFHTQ

B1: AR42: androgen receptor variant according to the invention with the amino acid sequence indicated in Seq ID NO 2 (protein, listed as Homo sapiens)
chain: MILWLHSLETARDHVLPIDYYFPPQKTCLICGDEASGCHYGALTCGSCKVFFKRAAEGKQKYLCASRNDCTIDKFRRKNCPSCRLRKCYEAGMTLGARKLKKLGNLKLQEEGEASSTTSPTEETTQKLTVSHIEGYECQPIFLNVLEAIEPGVVCAGHDNNQPDSFAALLSSLNELGERQLVHVVKWAKALPGFRNLHVDDQMAVIQYSWMGLMVFAMGWRSFTNVNSRMLYFAPDLVFNEYRMHKSRMYSQCVRMRHLSQEFGWLQITPQEFLCMKALLLFSIIPVDGLKNQKFFDELRMNYIKELDRIIACKRKNPTSCSRRFYQLTKLLDSVQPIARELHQFTFDLLIKSHMVSVDFPEMMAEIISVQVPKILSGKVKPIYFHTQ
B2: AR32: androgen receptor variant according to the invention with the amino acid sequence indicated in Seq ID NO 4 (protein, listed as Homo sapiens)
chain: MILWLHSLETARDHVLPIDYYFPPQKTCLICGDEASGCHYGALTCGSCKVFFKRAAEGKQKYLCASRNDCTIDKFRRKNCPSCRLRKCYEAGMTLGARKLKKLGNLKLQEEGEASSTTSPTEETTQKLTVSHIEGYECQPIFLNVLEAIEPGVVCAGHDNNQPDSFAALLSSLNELGERQLVHVVKWAKALPGFRNLHVDDQMAVIQYSWMGLMVFAMGWRSFTNVNSRMLYFAPDLVFNEYRMHKSRMYSQCVRMRHLSQEFGWLQITPQEFLCMKALLLFSINCERAASVHF

How the values were obtained:
AR [1] = target: T1, AR; assay: Transrepressing activity of AR42 and AR32 in CV-1 cells (luciferase reporter, Example 5); assay type: cell-based; parameters: expressed in transfected cells; host or cells: CV-1 cells; settings: constant amount of pSG5-AR, varying amounts of pSG5-AR42 or pSG5-AR32, after treatment with an androgen
From the text: (§1) A vector for the transient expression of AR42, AR32 or AR is built in the pSG5 plasmid (Stratagene). A constant amount of pSG5-AR and varying amounts of pSG5-AR42 or pSG5-AR32 are transfixed in CV-1 cells. In the control, a pSGS plasmid, which contains an irrelevant cDNA of similar length, is cotransfixed with the pSG5-AR. In addition, a reporter plasmid, which contains one or more copies of a steroid-response element or a selective androgen-response element, coupled to a luciferase reporter gene, is cotransfixed. After treatment with an androgen, an increase in the reporter gene activity is measured.

AR [2] = target: T1, AR; assay: Transrepressing activity: pSG5-AR and different amounts of pSG5-AR42 co-transfixed in PC-3 cells with MMTV reporter plasmid; assay type: cell-based; parameters: expressed in transfected cells; settings: 10 ng pSG5-AR, different amounts of pSG5-AR42, 100 ng MMTV reporter plasmid, R1881 10^-9 M
Description: 10 ng of pSG5-AR and different amounts of pSG5-AR42 were co-transfixed in PC-3 cells. In addition, 100 ng of a reporter plasmid, which contains the MMTV promoter, was transfixed.
as §1

[3] = system: MMTV promoter reporter plasmid in PC-3 cells; assay: Transactivation reporter assay: pSG5-AR42 co-transfixed with MMTV promoter reporter plasmid in PC-3 cells, treated with androgens; assay type: cell-based, human; settings: 100 ng pSG5-AR42 + 100 ng MMTV reporter plasmid, R1881, testosterone or DHT at 10^-7 M
Description: 100 ng of pSG5-AR42 was co-transfixed in PC-3 together with 100 ng of a reporter plasmid, which contains the MMTV promoter. These cells were then treated with various androgens (R1881: metribolone; T: testosterone; DHT: 5α-dihydrotestosterone) with a final concentration of 10^−7 M.
A vector for the transient expression of AR42 or AR32 is built in the pSG5 plasmid (Stratagene). This vector is transfixed in CV-1 or PC-3 cells. Parallel to this, a reporter plasmid that contains one or more copies of a steroid response element or a selective androgen response element, coupled to a luciferase reporter gene, is cotransfixed. To find specific effectors of AR42 or AR32, a high-throughput screening of substance banks is to be performed. Substances that trigger the activity of the reporter gene at a concentration of 10^−6 M or less are further processed. The search for receptor antagonists is performed in the presence of 10^−9 M androgen, e.g., R1881. Substances are selected that at least divide in half the androgen induction at a concentration of 10^−6 M or less.

Molecule | transrepressing activity (reporter gene activity of stimulated AR) (AR [1]) | transrepressing activity (reporter gene activity of stimulated AR) (AR [2]) | transactivating function (reporter gene activity) [3]
B1 | inhibit these transactivating effects of stimulated AR | inhibited the transactivating effects of stimulated AR | does not have any transactivating function
B2 | inhibit these transactivating effects of stimulated AR | – | –
